Assay results as given in patent US20210230307A1.

Molecular target: Chicken egg white-derived lysozyme (Sigma-Aldrich) (chicken) (UniProt P00698)
Experiment: SPR, Biacore T200; antigen immobilized, antibody as analyte, as in Example 1

Sequence of Chicken egg white-derived lysozyme (Sigma-Aldrich) (chicken) (P00698 19-147): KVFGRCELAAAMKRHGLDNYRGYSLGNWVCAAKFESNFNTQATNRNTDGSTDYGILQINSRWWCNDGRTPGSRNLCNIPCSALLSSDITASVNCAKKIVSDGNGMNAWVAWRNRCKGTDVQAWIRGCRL

Kd: 0.177 nM
Substance: Wild-type mouse anti-lysozyme antibody of clone Hy-HEL5
